Results from article PMC4764128.
pKd: −log10 of the molar value.

Biological target: Dup A502,Y503 KIT D4D5 fragment (human) (UniProt P10721)
Experiment: SEC-MALS

Dup A502,Y503 KIT D4D5 fragment (from UniProt P10721 308-514) (domain or fragment)
pKd: 3.14
